{
  "source": "paper PMC2140025",
  "biological_target": "F-actin (rat (endogenous in MTLn3)) (UniProt P60711)",
  "assay": "FLIP",
  "data": [
    {"substance": "GFP-cofilin (from UniProt P45592 1-166) (natural protein)", "values": [
      {"measurement": "tau of the slow FLIP component (assigned to F-actin-bound cofilin)", "value": 26, "unit": "s"}
    ]}
  ]
}
